The Human Domainome abundance scans (Beltran et al. 2025)

B1: Proto-oncogene vav, residues 782 to 842; numbered along this chain, P15498 (parent)
chain: KYFGTAKARYDFCARDRSELSLKEGDIIKILNKKGQQGWWRGEIYGRVGWFPANYVEEDYS

Variants of: B1
Experiment: abundance fitness (aPCA) (normalised: wild type 0, dead -1); higher = more abundant; growth selection in yeast, the domain comes from the species named
Details: Homo sapiens

Abundance fitness of substitutions, site by site:
Y2: V -0.247, E -0.238, C -0.229, H -0.138, L -0.323, W -0.36, M -0.082, K -0.392, D 0.021, G -0.15, I -0.097, S -0.033, P -0.212, R -0.226, F 0.061, T -0.138, N 0.228
G4: E -0.298, D -0.083, H -0.292, Y -0.213, M -0.164, W -0.169, R -0.183, F -0.348, L -0.247, A -0.163, C -0.274, P 0.011, S -0.111, Q -0.151, I -0.238, N -0.166, T -0.089
S18: G -0.194, P -0.794, E -0.277, V -0.599, Y -0.158, R -0.156, D -0.169, N 0.024, T -0.068, K -0.239, W -0.258, H -0.096, M -0.271, C -0.364, A 0.064, Q -0.451, L -0.368
C13: D -0.28, I -0.108, N 0.123, Y -0.198, T 0.146, Q 0.098, L -0.058, S 0.028, V 0.1, E 0.12, W -0.087, R 0.025, F -0.006, H -0.131, G -0.285, M -0.119, A -0.063, P -0.178, K -0.201
A14: W -0.649, V -0.889, H -0.562, Q -0.541, N -0.742, S -0.237, C -0.83, P -0.355, Y -0.328, F -0.804, L -1.03, E -0.873, M -0.931, T -0.54, K -0.692
Y10: I -0.115, L -0.122, D -0.305, C -0.338, E -0.13, Q 0.107, M 0.098, K 0.047, V -0.184, S 0.044, W -0.116, A 0.029, G -0.177, P -0.847, H 0.079, N -0.393
R17: G -0.012, W -0.223, E -0.027, N 0.061, D -0.046, Q -0.044, V -0.014, P 0.031, K 0.065, L 0.035, F -0.315, T -0.027, H -0.076, A 0.056, C 0.1, M -0.06, Y 0.107
R9: S -0.34, M -0.027, T -0.086, H -0.505, N -0.282, E -0.614, Y -0.821, P -0.972, I -0.296, K 0.072, C -0.356, W -0.737, G -0.75, F 0.05
F3: Y -0.009, L 0.027, C -0.105, K -0.103, T -0.063, G -0.268, M -0.054, R -0.145, D -0.274, E -0.192, W -0.166, N -0.173, V -0.029, I 0.058, S -0.167, H -0.396, P -0.232
D11: A -0.103, F -0.901, Q -0.363, I -0.693, M -0.35, G -0.258, K -0.362, L -0.607, V -0.587, E -0.159, C -0.264, Y -0.441, W -0.715, N 0.086, P -0.284, H -0.503, S -0.251, T -0.316
K1: Q 0.088, T -0.27, H -0.109, V -0.241, R -0.643, Y -0.261, F -0.159, N 0.099, L -0.21, P -0.822, G -0.227, S -0.198, E -0.16, W -0.474
L20: F -0.937, M -0.756, N -0.691, R -0.883, I -0.342, Q -1.05, V -0.577, G -0.927, A -0.768, K -0.673, W -0.919, C -0.966, Y -0.64, S -0.825, E -0.852, T -0.642
E19: W -0.445, R -1.08, M 0, A -1, G -0.678, L -0.593, H -0.137, V -0.922, T -0.838, Y -0.763, K -0.885, F -0.657, Q -0.103, D -0.654, C -0.502, S -0.417
F12: L -0.813, P -1.13, R -0.365, K -1.01, W -0.114, M -0.827, Q -0.553, V -0.763, I -0.536, E -1.01, C -0.83, H -0.029, N -0.671, A -0.537, T -0.952, S -0.886, G -0.977
A6: E -0.904, N -0.905, T -0.883, K -0.725, C -0.115, V -0.214, H -0.677, D -0.679, S -0.654, M -0.733, I -0.852, P -0.832, F -0.694, Y -0.264
S21: E -0.049, C -0.445, Q -0.594, P -0.36, N -0.333, F -0.607, H -0.243, G -0.34, K -0.627, I -0.378, A -0.26, L -0.653, D 0.153
T5: I -0.248, C -0.152, V -0.159, Y -0.064, A -0.084, W -0.178, S -0.179, L -0.099, F 0.168, K -0.468, M -0.209, E -0.25, P -0.401, H -0.094, R -0.209
K7: N -0.797, C -0.04, M 0.006, H -0.233, W -0.407, D -0.766, P -0.97, Q -0.093, E -0.511, A -0.475, I -0.232, V -0.152, L -0.191, S -0.381, G -0.629, Y -0.133
R15: G -0.316, A -0.418, V -0.471, N -0.411, K -0.169, D -0.466, P -0.925, Q -0.26, F -0.78, M -0.507, H -0.293, S -0.386, T -0.181, C -0.444, Y -0.414
D16: F -0.618, V -0.308, W -0.617, R -0.112, Y -0.445, G -0.11, T -0.135, H 0.022, P -0.839, K -0.174, L -0.418, E -0.225, M -0.499, Q -0.108, S 0
A8: C -0.582, P -0.606, I -0.535, G -0.953, L -0.731, R -0.903, H -0.62, Y -0.708, M -0.727, E -0.745, T -0.756, D -0.864, W -1.04, F -0.785, V -0.035, Q -0.956
